Test results as given in PMC11650716, “Identification of a robust bacterial pyranose oxidase that displays an unusual pH dependence” (The Journal of Biological Chemistry, 2024).

Columns and labels:
[1] = target: T1, OPOx (pyranose oxidase from Oscillatoria princeps) (Oscillatoria princeps, UniProt A0ABF7PQA8); assay: X-ray crystal structure, […] Å; type: binding; details: covalent; 8α-methyl of FAD bound to His125 NE2; crystals at pH 9.2
T1 construct: full length, 534 residues (533 also printed), N-terminal His-tag, pBAD vector, E. coli NEB 10-beta; synthetic codon-optimised gene; 61 kDa with tag; homotetramer
T1 sequence (A0ABF7PQA8 1-533): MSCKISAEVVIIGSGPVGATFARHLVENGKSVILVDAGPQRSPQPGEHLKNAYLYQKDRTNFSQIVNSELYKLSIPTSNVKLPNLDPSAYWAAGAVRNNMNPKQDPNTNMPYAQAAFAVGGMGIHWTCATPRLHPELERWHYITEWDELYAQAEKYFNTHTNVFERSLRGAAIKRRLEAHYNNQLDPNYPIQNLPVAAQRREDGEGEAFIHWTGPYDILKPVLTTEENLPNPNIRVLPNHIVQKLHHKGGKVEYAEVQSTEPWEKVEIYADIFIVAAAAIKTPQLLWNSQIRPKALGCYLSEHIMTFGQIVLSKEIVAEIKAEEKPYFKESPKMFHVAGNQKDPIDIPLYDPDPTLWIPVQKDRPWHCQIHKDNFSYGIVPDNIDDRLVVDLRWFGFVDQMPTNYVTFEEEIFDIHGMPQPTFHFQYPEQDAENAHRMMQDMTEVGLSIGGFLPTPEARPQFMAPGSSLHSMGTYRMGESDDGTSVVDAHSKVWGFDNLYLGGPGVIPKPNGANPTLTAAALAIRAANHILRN

[2] = target: pyranose oxidase from Oscillatoria princeps (OPOx) (Oscillatoria princeps); assay: dynamic light scattering + SEC; DLS: about 15 μM OPOx in 50 mM citrate buffer (pH 5.5), 294 K; gel permeation chromatography (Fig. S3)
[3] = target: pyranose oxidase from Oscillatoria princeps (OPOx) (Oscillatoria princeps); assay: crystal structure; X-ray, 2.64 Å, space group P2(1)2(1)2(1), tetramer in the asymmetric unit; crystals with sodium sulfate as additive at pH 9.2. A low-resolution C222(1) crystal form has a dimer in the asymmetric unit and forms the tetramer through a crystallographic two-fold axis

Row | stoichiometry N [2] | stoichiometry N [3] | Molecule | X-ray crystal structure, 2.64 Å [1]
1 |  |  | Cc1cc2nc3c(=O)[nH]c(=O)nc-3n(C[C@H](O)[C@H](O)[C@H](O)COP(=O)(O)OP(=O)(O)OC[C@H]3O[C@@H](n4cnc5c(N)ncnc54)[C@H](O)[C@@H]3O)c2cc1C [FAD] | crystal structure of OPOx with a covalently bound FAD cofactor per subunit
2 | 4 | 4 | pyranose oxidase from Oscillatoria princeps (OPOx) (enzyme) | 
